These are literature values, as cited in paper PMC9222382.

In the data set the target is IL-10Rα (Homo sapiens) (UniProt Q13651).
Sequence of UniProt Q13651 (Q13651 22-235): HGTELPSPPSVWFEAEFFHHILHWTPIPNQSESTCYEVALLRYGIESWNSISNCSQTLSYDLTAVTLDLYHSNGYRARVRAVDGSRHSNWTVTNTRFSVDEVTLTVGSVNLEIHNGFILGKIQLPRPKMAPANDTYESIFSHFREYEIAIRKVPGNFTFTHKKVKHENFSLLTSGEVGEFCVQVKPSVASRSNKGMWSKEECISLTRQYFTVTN

The term Kd denotes the free concentration of one partner at which half of the binding sites on the other are occupied at equilibrium, for simple one-to-one binding. As for IL-10 (from UniProt P22301), the Kd was 1 nM.
